Drawing on paper PMC11722432, this text covers Kd for one substance.

The target in the assay is dynein-dynactin complex (pig brain dynein with pig brain dynactin) (pig (endogenous in pig brain)) (UniProt F2Z5G5). Put plainly: negative-stain EM.

For orientation: Kd means a measure of binding affinity in units of concentration. A low value points to a tighter complex. Substance “full-length BicdR1 (from UniProt A0JNT9 1-577) (natural protein)” yielded a dissociation constant Kd of 5.11 µM.
